T1: Recombinant SIG-5 Fc-fusion protein (R&D Systems) (human, UniProt O15389 17-434, limits assumed)
T1 construct: Bought from R&D Systems; Held on the plate by protein A; also called SIGLEC 5; not shown: Fc part of the bought fusion protein
T1 sequence (looked up): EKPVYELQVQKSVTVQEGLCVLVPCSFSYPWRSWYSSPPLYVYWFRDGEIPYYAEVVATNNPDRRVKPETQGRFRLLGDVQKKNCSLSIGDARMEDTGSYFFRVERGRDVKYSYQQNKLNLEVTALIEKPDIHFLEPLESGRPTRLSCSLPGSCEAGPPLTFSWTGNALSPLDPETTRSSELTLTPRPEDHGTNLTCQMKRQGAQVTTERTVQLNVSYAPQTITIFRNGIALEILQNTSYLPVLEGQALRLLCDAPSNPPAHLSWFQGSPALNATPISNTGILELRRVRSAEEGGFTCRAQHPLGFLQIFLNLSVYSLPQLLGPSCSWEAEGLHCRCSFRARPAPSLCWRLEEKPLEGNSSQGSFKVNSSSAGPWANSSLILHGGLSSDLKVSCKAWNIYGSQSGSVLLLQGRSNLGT

B1: Recombinant SIG-10 Fc-fusion protein (R&D Systems) (Fc fusion, human, UniProt Q96LC7 17-546, looked up)
chain: MDGRFWIRVQESVMVPEGLCISVPCSFSYPRQDWTGSTPAYGYWFKAVTETTKGAPVATNHQSREVEMSTRGRFQLTGDPAKGNCSLVIRDAQMQDESQYFFRVERGSYVRYNFMNDGFFLKVTALTQKPDVYIPETLEPGQPVTVICVFNWAFEECPPPSFSWTGAALSSQGTKPTTSHFSVLSFTPRPQDHNTDLTCHVDFSRKGVSAQRTVRLRVAYAPRDLVISISRDNTPALEPQPQGNVPYLEAQKGQFLRLLCAADSQPPATLSWVLQNRVLSSSHPWGPRPLGLELPGVKAGDSGRYTCRAENRLGSQQRALDLSVQYPPENLRVMVSQANRTVLENLGNGTSLPVLEGQSLCLVCVTHSSPPARLSWTQRGQVLSPSQPSDPGVLELPRVQVEHEGEFTCHARHPLGSQHVSLSLSVHYSPKLLGPSCSWEAEGLHCSCSSQASPAPSLRWWLGEELLEGNSSQDSFEVTPSSAGPWANSSLSLHGGLSSGLRLRCEAWNVHGAQSGSILQLPDKKGLIST
notes: Bought from R&D Systems; Held on the plate by protein A; not shown: Fc part of the bought fusion protein
B2: Cluster 1 fragment (tryptic glycopeptide of plasma derived vWF, AA 449 to 511) (peptide)
peptide: VTLNPSDPEHC(Maleimide‑PEG2‑Biotin)QIC(Maleimide‑PEG2‑Biotin)HC(Maleimide‑PEG2‑Biotin)DVVNLTC(Maleimide‑PEG2‑Biotin)EAC(Maleimide‑PEG2‑Biotin)QEPGGLVVPPTDAPVSPTTLYVEDISEPPLHDFYC(Maleimide‑PEG2‑Biotin)SR
modifications: also: natural O-glycans (sialylated core 2), sites not given here
notes: also called Cluster I; O-glycosylation Cluster I
B3: Recombinant SIG-F (mouse equivalent of human SIG-8) Fc-fusion protein (R&D Systems) (Fc fusion)
chain: TDGYSLSVTGSVTVQEGLCVFVACQVQYPNSKGPVFGYWFREGANIFSGSPVATNDPQRSVLKEAQGRFYLMGKENSHNCSLDIRDAQKIDTGTYFFRLDGSVKYSFQKSMLSVLVIALTEVPNIQVTSTLVSGNSTKLLCSVPWACEQGTPPIFSWMSSALTSLGHRTTLSSELNLTPRPQDNGTNLTCQVNLPGTGVTVERTQQLSVIYAPQKMTIRVSWGDDTGTKVLQSGASLQIQEGESLSLVCMADSNPPAVLSWERPTQKPFQLSTPAELQLPRAELEDQGKYICQAQNSQGAQTASVSLSIRSLLQLLGPSCSFEGQGLHCSCSSRAWPAPSLRWRLGEGVLEGNSSNGSFTVKSSSAGQWANSSLILSMEFSSNHRLSCEAWSDNRVQRATILLVSGPKVSQAGKSETSRGTVL
notes: Bought from R&D Systems; not shown: Fc part of the bought fusion protein

Test [1] deals with T2, Plasma derived VWF (pdVWF), biotinylated (human, UniProt P04275 764-2813, biotinylated with EZ-Link Sulfo-NHS-Biotin; natural N- and O-glycans of plasma vWF).
T2 construct: Plasma-derived multimeric glycoprotein; also called von Willebrand factor; full length vWF
Nature of the test: ELISA: SIGLEC-Fc captured on a protein A plate (500 ng/well), biotinylated plasma derived vWF 0-0.8 µg/mL, streptavidin-HRP, A492.

The target in test [2] is B1. Nature of the test: ELISA: SIGLEC-Fc captured on a protein A plate (500 ng/well), biotinylated cluster fragment at 4 µg/mL, streptavidin-HRP, A492, single concentration.
In test [3] the target is T3, Recombinant SIG-9 Fc-fusion protein (R&D Systems) (human, UniProt Q9Y336 18-348).
T3 construct: Bought from R&D Systems; Held on the plate by protein A; also called SIGLEC 9; not shown: Fc part of the bought fusion protein
The test is described as above.

In test [4] the target is T1, Recombinant SIG-5 Fc-fusion protein …. The description is as above.
The target in test [5] is T4, Recombinant SIG-7 Fc-fusion protein (R&D Systems) (human, UniProt Q9Y286 19-357, limits assumed).
T4 construct: Bought from R&D Systems; Held on the plate by protein A; also called SIGLEC 7; not shown: Fc part of the bought fusion protein
Described as above.

The target in test [6] is B3. In words: ELISA: SIGLEC-Fc captured on a protein A plate (500 ng/well), biotinylated cluster fragment at 4 µg/mL, streptavidin-HRP, A492, single concentration; sheet says Siglec 8, legend says SIG-F.
Test [7] has as its target T5, Seq11 (recombinant vWF fragment AA 1-505 of SEQ ID NO: 1 with C-terminal Strep-Tag, from HEK 293) (human, UniProt P04275 764-1268, four O-glycosylation sites 485, 492, 493, 500 occupied (core 1, core 2 and/or extended core 1, sialylated)).
T5 construct: Expressed in HEK293 / MEXi-293 cells, purified on Strep-Tactin; not shown: C-terminal Twin-Strep-tag of the pDSG vector (IBA)
In words: SIGLEC ELISA, Scatchard analysis of the binding curve (apparent KD); printed SIGLEC 8, ELISA done as in Examples 8 and 9 with SIG-F.

The target of test [8] is T6, vWF C-terminal fragment (V8 protease digest of plasma derived vWF) (human, UniProt P04275 2129-2813, biotinylated with EZ-Link Sulfo-NHS-Biotin).
T6 construct: the real molecule is only its C-terminal part; also called C-terminal vWF fragment
Nature of the test: ELISA: SIGLEC-Fc captured on a protein A plate (500 ng/well), biotinylated vWF fragment at 1 µg/mL, streptavidin-HRP, A492, single concentration; sheet says Siglec 8, legend says SIG-F.

T5 sequence (P04275 764-1268): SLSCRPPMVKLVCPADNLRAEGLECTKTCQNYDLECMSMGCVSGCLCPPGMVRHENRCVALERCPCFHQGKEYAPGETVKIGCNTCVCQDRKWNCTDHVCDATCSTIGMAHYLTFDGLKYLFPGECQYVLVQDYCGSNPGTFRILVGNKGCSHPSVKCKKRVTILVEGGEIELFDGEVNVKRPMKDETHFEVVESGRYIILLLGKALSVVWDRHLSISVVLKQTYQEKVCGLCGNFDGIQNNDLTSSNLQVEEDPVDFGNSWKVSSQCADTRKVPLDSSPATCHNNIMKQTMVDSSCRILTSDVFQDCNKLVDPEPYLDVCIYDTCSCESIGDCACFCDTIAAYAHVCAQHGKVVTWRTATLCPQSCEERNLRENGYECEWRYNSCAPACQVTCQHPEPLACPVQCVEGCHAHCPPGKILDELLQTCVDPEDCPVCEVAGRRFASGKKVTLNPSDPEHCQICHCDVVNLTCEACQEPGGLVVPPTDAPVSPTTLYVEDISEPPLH
T3 sequence (Q9Y336 18-348 limits assumed): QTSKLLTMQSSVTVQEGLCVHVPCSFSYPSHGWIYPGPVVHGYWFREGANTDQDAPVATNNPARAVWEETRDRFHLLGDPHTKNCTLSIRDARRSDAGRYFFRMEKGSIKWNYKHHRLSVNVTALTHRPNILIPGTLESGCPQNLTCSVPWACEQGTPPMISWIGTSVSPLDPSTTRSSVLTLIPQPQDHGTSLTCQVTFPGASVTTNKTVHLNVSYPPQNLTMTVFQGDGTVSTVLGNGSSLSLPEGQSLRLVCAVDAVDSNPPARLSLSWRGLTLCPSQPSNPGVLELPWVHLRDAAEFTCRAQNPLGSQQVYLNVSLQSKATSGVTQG
T4 sequence (Q9Y286 19-357 limits assumed): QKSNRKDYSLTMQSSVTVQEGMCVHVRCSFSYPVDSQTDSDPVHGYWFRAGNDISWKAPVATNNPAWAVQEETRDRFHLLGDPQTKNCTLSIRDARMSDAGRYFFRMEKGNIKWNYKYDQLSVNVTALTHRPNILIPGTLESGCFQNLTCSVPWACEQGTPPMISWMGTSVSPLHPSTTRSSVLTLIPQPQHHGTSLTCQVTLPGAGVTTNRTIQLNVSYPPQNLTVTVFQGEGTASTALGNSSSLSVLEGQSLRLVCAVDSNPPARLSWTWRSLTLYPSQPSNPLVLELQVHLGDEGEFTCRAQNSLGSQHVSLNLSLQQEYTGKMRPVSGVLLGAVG
T2 sequence (P04275 764-2813 limits assumed): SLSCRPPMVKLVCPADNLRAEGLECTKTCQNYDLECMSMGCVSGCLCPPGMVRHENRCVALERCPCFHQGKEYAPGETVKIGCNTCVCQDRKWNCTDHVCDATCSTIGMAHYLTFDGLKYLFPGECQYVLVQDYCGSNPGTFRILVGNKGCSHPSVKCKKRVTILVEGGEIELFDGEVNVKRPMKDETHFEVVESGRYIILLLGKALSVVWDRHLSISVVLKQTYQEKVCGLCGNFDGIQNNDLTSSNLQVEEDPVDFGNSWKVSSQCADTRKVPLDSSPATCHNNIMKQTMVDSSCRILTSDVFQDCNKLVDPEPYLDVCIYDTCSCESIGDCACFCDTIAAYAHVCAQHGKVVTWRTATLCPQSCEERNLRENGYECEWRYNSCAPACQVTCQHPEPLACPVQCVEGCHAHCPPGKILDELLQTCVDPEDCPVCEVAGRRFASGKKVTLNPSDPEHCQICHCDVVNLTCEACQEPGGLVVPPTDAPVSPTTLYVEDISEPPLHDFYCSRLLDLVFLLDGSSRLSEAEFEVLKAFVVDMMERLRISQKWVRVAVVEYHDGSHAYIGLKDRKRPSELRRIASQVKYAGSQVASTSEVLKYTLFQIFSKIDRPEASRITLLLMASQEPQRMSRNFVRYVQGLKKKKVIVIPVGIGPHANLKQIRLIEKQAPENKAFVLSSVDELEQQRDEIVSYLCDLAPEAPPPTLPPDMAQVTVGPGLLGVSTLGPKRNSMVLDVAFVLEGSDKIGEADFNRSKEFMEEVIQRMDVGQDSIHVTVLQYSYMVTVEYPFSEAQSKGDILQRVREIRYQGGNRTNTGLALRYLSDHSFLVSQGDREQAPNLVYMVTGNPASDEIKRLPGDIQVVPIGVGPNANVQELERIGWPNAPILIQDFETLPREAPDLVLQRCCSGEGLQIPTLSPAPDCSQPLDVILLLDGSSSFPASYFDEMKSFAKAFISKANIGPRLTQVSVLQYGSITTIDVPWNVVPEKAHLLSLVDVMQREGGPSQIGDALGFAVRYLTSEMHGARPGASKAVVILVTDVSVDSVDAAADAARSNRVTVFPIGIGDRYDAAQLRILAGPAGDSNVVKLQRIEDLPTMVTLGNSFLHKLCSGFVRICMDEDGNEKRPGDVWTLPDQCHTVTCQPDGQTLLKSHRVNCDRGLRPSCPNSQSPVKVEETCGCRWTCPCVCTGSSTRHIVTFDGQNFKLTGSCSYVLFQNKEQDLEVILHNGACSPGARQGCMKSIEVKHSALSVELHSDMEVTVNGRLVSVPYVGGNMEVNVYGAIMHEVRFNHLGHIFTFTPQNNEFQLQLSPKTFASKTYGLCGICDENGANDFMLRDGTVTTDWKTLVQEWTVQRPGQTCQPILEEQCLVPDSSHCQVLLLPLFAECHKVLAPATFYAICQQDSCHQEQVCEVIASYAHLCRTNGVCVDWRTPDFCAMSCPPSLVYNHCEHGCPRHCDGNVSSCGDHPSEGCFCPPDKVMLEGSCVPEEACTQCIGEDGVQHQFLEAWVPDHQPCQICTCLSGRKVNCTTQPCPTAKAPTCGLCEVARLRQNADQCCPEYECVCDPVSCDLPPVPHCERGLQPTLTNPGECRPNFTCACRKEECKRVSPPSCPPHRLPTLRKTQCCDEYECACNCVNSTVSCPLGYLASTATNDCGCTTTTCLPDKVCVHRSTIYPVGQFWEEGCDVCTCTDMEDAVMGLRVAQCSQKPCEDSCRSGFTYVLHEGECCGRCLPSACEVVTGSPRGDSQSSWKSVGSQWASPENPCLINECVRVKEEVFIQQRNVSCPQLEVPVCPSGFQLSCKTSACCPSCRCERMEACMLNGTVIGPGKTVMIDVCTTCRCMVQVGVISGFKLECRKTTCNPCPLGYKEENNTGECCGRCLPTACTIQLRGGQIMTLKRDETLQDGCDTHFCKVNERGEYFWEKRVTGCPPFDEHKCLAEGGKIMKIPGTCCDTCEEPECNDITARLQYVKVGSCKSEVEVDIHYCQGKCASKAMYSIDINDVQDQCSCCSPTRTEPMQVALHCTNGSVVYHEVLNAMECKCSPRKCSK
T6 sequence (P04275 2129-2813 limits assumed): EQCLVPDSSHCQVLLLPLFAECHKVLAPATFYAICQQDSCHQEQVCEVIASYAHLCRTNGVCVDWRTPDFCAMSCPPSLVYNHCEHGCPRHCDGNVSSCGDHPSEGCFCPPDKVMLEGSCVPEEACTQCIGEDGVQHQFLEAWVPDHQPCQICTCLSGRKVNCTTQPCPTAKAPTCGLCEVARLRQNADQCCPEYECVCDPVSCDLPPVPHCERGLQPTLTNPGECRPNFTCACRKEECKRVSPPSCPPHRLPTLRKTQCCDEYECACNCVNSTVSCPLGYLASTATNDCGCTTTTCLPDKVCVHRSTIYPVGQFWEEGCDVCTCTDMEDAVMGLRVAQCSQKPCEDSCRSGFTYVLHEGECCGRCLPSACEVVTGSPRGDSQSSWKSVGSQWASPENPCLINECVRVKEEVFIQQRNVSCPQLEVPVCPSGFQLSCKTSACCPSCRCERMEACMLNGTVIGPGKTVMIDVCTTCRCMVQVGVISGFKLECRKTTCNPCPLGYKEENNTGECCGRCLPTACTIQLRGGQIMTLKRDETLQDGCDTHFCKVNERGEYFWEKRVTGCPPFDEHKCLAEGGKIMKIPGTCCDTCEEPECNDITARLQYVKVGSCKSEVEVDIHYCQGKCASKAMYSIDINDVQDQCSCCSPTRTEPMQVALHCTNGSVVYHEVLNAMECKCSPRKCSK

Turning to B1, the binding result in test [1] is “no binding (tested: 0.8 µg/mL)”.
Take B2: the binding result in test [2], in test [3], in test [4], in test [5] and in test [6] was “no binding (tested: 4 µg/mL)” throughout.
On to B3, for which, in test [7], the Kd was 1.03 µM. Besides, the binding result in test [8] is on record as “no binding (tested: 1 µg/mL)”.

The values above are taken from US20210275644A1 (OCTAPHARMA, published 2021).
